Laboratory results as given in article PMC8754659.

Target: SpyCas9 (Streptococcus pyogenes, UniProt Q99ZW2 1-1368)
Assay: EMSA

Sequence of SpyCas9 (Q99ZW2 whole entry): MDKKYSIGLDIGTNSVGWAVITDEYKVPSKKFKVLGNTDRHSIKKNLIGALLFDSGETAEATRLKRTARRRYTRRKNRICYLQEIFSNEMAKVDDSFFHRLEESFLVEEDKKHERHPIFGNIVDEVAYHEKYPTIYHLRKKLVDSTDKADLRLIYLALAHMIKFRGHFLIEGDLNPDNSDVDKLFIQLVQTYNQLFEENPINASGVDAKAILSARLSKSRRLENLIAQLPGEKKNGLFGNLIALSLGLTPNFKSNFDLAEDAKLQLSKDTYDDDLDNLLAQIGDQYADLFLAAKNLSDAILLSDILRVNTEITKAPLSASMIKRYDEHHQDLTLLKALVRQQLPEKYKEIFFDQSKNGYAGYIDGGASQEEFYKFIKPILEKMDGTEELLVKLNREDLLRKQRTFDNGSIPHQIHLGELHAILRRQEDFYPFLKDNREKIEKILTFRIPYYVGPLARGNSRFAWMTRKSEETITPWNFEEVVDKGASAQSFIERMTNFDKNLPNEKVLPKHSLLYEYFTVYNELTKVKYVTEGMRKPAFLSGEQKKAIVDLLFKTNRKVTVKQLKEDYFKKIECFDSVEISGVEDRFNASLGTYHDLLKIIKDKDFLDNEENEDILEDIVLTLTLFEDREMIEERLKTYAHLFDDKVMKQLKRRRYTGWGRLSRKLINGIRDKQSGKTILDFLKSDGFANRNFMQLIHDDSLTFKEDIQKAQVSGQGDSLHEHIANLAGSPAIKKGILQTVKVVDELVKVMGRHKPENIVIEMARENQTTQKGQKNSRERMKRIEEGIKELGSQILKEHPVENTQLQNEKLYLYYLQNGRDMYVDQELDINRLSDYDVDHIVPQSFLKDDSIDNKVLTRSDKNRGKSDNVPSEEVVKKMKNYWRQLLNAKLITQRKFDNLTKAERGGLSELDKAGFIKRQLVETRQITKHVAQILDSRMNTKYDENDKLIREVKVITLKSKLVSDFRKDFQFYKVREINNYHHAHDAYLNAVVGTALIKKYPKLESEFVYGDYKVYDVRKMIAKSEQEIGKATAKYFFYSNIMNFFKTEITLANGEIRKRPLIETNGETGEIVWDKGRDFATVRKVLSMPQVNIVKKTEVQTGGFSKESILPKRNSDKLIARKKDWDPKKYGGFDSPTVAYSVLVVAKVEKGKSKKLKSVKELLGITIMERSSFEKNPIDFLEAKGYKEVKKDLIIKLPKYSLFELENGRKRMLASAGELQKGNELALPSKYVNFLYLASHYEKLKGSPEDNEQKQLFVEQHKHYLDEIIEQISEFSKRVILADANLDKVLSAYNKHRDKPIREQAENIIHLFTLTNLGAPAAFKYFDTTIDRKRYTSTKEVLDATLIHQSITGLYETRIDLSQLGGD

B1: sgRNA (20 nt spacer) + FAM target DNA 38 bp (mixed)
DNA 1: ATTGCCGTCAGGAAATTAGGTGCGCTTAGCTGGTATTG
DNA 2: CAATACCAGCTAAGCGCACCTAATTTCCTGACGGCAAT
binding result: binds
